Results taken from patent publication US5736294A, “Reagents and methods for modulating gene expression through RNA mimicry” (ISIS Pharmaceuticals, Inc., priority 1991, dated 1998).

Assays:
[1] = tested on: tat 37-mer peptide (tat37); assay: Polyacrylamide gel mobility shift assay of TAR-tat binding (tat37); parameters: species or system HIV; details: tat peptide not specified
Experimental: All dilutions of [5'-^32 P]-TAR RNA stock solution were made into TE, pH 7.5 containing 4 mg pdIdC (Boehringer Mannheim, Indianapolis, Ind.), and all dilutions of stock solutions (in water) of tat 37-mer peptide similarly were made into TE, pH 7.5 containing 500 nM BSA. […] TAR and analogs not made by T7 RNA polymerase synthesis were made by automated chemical oligonucleotide synthesis (indicated by synthesis number in Table 1). Gel mobility shift assays were performed by the addition of [5'-^32 P]-TAR RNA and tat37 at indicated concentrations (Table 1) to a 10 μl reaction containing 10 mM Tris-HCl pH 7.5, 70 mM NaCl, 0.2 mM EDTA, 5% (v/v) glycerol, 500 nM BSA, and 4 mg pdIdC. Each binding mix was incubated for 30 min at 4° C. and then loaded directly onto a 10% (75:1 acrylamide:bisacrylamide) native PAG. Electrophoresis was performed using 1/2×TBE running buffer at 250V for about 2 hours at 43° C. Radiolabeled TAR RNA was then detected by autoradiography. For preliminary screening experiments, binding parameters were determined by visual estimation of relative intensities of exposure of film by free and specifically bound TAR and TAR mimetics/analogs, followed by appropriate mathematical and graphical analysis.
Further polyacrylamide gel mobility shift assays of TAR binding to tat 37 and tat 25 have been carried out. […]

[2] = tested on: HIV gene expression (HIV LTR, tat trans-activation); assay: Luciferase assay for inhibition of HIV gene expression in HeLa cells (pHIVluc + pcDEBtat); type: cell-based; details: higher dose (7 μM); FIG. 7
Excerpt: pHIVluc is a plasmid which contains the luciferase gene under regulatory control of the HIV LTR. When this plasmid is present in the cell, it responds to the same regulatory signals which activate HIV gene expression by producing the enzyme luciferase. Luciferase can be easily assayed by adding a substrate, luciferin, under the appropriate conditions and measuring the amount of light produced in a luminometer. Thus, specific inhibition of luciferase production in cells is equivalent to inhibiting HIV gene expression, and is predictive of antiviral activity in humans. This assay is similar to that described by Felber B. K. and Pavlakis G. N. (Science, 239:184-187 (1988)), the major difference is simply the enzyme encoded by the reporter gene. To construct this plasmid, the plasmids pT3/T7 luc (Clonetech) and IP-RG-24 (a plasmid which contains the HIV LTR) were digested to completion with KpnI and HindIII. […]
Luciferase activity was then determined for each well as follows. […] The plate was then read in a Dynatec multiwell luminometer which injected 75 ul of Luciferin buffer (25 mM glycylglycine pH 7.8, 15 mM MgSO4, 4 mM EGTA, 4 DTT, 1 mM luciferin) into each well and measured the light emitted. […]

[3] = molecular target: T1, HIV-1 Tat 25-mer peptide (tat25) (Human immunodeficiency virus 1, UniProt P69698 SEQ:1-25); assay: EMSA; 1:1 KD; repeated in Table 4 under tat37 heading; details: protein: synthetic, tags: peptide fragment, label: 32P, hairpin, stem-bulge-loop
T1 chain: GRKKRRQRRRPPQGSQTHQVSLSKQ

[4] = molecular target: T2, HIV-1 Tat 37-mer peptide (tat37) (Human immunodeficiency virus 1, UniProt P69698 SEQ:1-37); assay: EMSA; 1:1 KD; 2-3:1 KD 8000-20000 nM; Table 4 gives <10 nM; 4 C; details: protein: synthetic; tags: chemically synthesized peptide, RP HPLC purified (UCSF Biotechnology Resource Core); label: 32P; hairpin, stem-bulge-loop
T2 chain: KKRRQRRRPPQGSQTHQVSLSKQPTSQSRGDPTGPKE

[5] = molecular target: T1, HIV-1 Tat 25-mer peptide (tat25); assay: EMSA; 1:1 KD; 2:1 KD 10-100 nM; 70 mM NaCl, 4 C; details: protein: synthetic, tags: peptide fragment, label: 5'-32P, hairpin, stem-bulge-loop
[6] = molecular target: T2, HIV-1 Tat 37-mer peptide (tat37); assay: EMSA; 1:1 KD; 2-3:1 KD 200 nM; 10 mM Tris pH 7.5, 70 mM NaCl, 4 C; details: protein: synthetic; tags: chemically synthesized peptide, RP HPLC purified (UCSF Biotechnology Resource Core); label: 5'-32P; hairpin, stem-bulge-loop
[7] = molecular target: T2, HIV-1 Tat 37-mer peptide (tat37); assay: EMSA; 1:1 KD; 2-3:1 KD 30 nM; 70 mM NaCl, 4 C; details: protein: synthetic; tags: chemically synthesized peptide, RP HPLC purified (UCSF Biotechnology Resource Core); label: 32P
[8] = molecular target: T2, HIV-1 Tat 37-mer peptide (tat37); assay: EMSA; 1:1 KD; 70 mM NaCl, 4 C; details: protein: synthetic; tags: chemically synthesized peptide, RP HPLC purified (UCSF Biotechnology Resource Core); label: 32P; hairpin
[9] = molecular target: T1, HIV-1 Tat 25-mer peptide (tat25); assay: EMSA; 1:1 KD; repeated in Table 4; details: protein: synthetic, tags: peptide fragment, label: 32P, hairpin, stem-bulge-loop
[10] = molecular target: T2, HIV-1 Tat 37-mer peptide (tat37); assay: EMSA; 1:1 KD; 2-3:1 KD 8200 nM; Table 4 gives 60 nM; 4 C; details: protein: synthetic; tags: chemically synthesized peptide, RP HPLC purified (UCSF Biotechnology Resource Core); label: 32P; hairpin, stem-bulge-loop

In the case of “2850: 2'-O-methyl stem/loop control with extensive mutations in loop and bulge regions, SEQ ID NO: 9 (GCCAGAGAGCCUGGGAGCUCCCUGGC; all 2'-O-methyl, backbone not given here) [compound 2850]”, the “binding to the tat peptide in vitro” value [1] is reported as “unable to bind” and the “inhibition of HIV gene expression” value [2] is reported as “some non-specific activity”.

With “2848: 2'-O-methyl stem/loop control with extensive mutations in loop and bulge regions, SEQ ID NO: 8 (GCCAGAGAGCCUUUGGGCUCUCUGGC; all 2'-O-methyl, backbone not given here) [compound 2848]” the “binding to the tat peptide in vitro” value [1] was “unable to bind” and the “inhibition of HIV gene expression” value [2] was “some non-specific activity”.

B1: deltaTAR29 #3153 (16-45 -A17) (ssRNA)
RNA: GCCAGAUCUGAGCCUGGGAGCUCUCUGGC
With B1 the Kd [3] was 17.3 nM.

B2: 2'-OMe P=S deltaTAR #2195 29-mer (16-45 -A17) (ssRNA)
RNA: GCCAGAUCUGAGCCUGGGAGCUCUCUGGC
modifications: 2'-OMe, PS
In the case of B2, the Kd [4] is reported as 6.33 nM.

B3: TAR 59-mer (1-59) (ssRNA)
RNA: GGGUCUCUCUGGUUAGACCAGAUCUGAGCCUGGGAGCUCUCUGGCUAACUAGGGAACCC
With B3 the Kd [5] was 0.0316 nM and the Kd [6] was 40 nM.

B4: P=S TAR 59-mer (ssRNA)
RNA: B3 RNA
modifications: PS at A linkages (A:P=S)
With B4 the Kd [7] was < 10 nM.

B5: 5-BrU TAR 59-mer (ssRNA)
RNA: B3 RNA
modifications: 5-bromouridine
B5 was tested, and the Kd [8] was 40 nM.

B6: 2'-OMe deltaTAR #2306 29-mer (16-45 -A17) (ssRNA)
RNA: GCCAGAUCUGAGCCUGGGAGCUCUCUGGC
modifications: 2'-OMe throughout
In the case of B6, the Kd [9] is reported as 31.6 nM and the Kd [10] is reported as 86.6 nM.
